Results from patent US20220289833A1 (BIOSION, published 2022).
Residue numbers refer to the chain shown, from its start.

T1: Recombinant cynomolgus monkey TSLP-his (cynomolgus monkey)
T1 construct: Prepared in-house; Amine-coupled to CM5 chip in SPR, coated on plates in the indirect ELISA; also called cynomolgus TSLP; cynomolgus TSLP-his protein
T1 chain: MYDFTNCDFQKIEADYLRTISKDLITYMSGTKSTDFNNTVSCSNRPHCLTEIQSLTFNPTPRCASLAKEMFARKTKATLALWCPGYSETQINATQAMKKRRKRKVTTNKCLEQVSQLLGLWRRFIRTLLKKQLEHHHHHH

B1: hu1C5F12E9-V8 (IgG4) (antibody)
heavy: not shown
light: DIQMTQSPSSLSASVGDRVTITCRPTENIYSYLAWYQQKPGKAPKLLIYFARTLAEGVPSRFSGSGSGTDFTLTISSLQPEDFATYYCQHHYGTPWTFGGGTKVEIKRTVAAPSVFIFPPSDEQLKSGTASVVCLLNNFYPREAKVQWKVDNALQSGNSQESVTEQDSKDSTYSLSSTLTLSKADYEKHKVYACEVTHQGLSSPVTKSFNRGEC
notes: also called huC5F12E9-V8
B2: hu1C5F12E9-V8 (IgG1) (antibody)
heavy: not shown
light: B1 light
notes: Humanized, human IgG1/kappa
B3: hu1C5F12E9-V14 (IgG1) (antibody)
heavy: not shown
light: B1 light with A43S
notes: Humanized, human IgG1/kappa
B4: hu1C5F12E9-V14 (IgG4) (antibody)
heavy: not shown
light: B1 light with A43S
notes: also called huC5F12E9-V14
B5: hu1C5F12E9-V16 (antibody, human IgG4 S228P, kappa, V domains shown)
VH: QVQLVQSGAEVKKPGASVKVSCKASGYTFTTYWMHWVRQAPGQGLEWMGVIDPSDSDTTYNQKFKGRATMTRDTSTSTVYMELSSLRSEDTAVYYCTRSLDGYYDYWGQGTLVTVSS
VL: DIQMTQSPSSLSASVGDRVTITCRPTENIYSYLAWYQQKPGKSPKLLIYFARTLAEGVPSRFSGSGSGTDFTLTISSLQPEDFATYYCQHHYGTPWTFGGGTKVEIKR
B6: hu1C5F12E9-V11 (antibody, human IgG4 S228P, kappa, V domains shown)
VH: B5 VH with R67K
VL: B5 VL with S43A
B7: hu1C5F12E9-V13 (antibody, human IgG4 S228P, kappa, V domains shown)
VH: B5 VH with M48I, M70L, R72V, T76S, V79A
VL: B5 VL
B8: hu1C5F12E9-V3 (antibody, human IgG4 S228P, kappa, V domains shown)
VH: B5 VH with A68V, R72V
VL: B5 VL with I48V
B9: hu1C5F12E9-V15 (antibody, human IgG4 S228P, kappa, V domains shown)
VH: B5 VH with A68V, R72V
VL: B5 VL
B10: hu1C5F12E9-V17 (antibody, human IgG4 S228P, kappa, V domains shown)
VH: B5 VH with R67K
VL: B5 VL
B11: hu1C5F12E9-V9 (antibody, human IgG4 S228P, kappa, V domains shown)
VH: B5 VH with A68V, R72V
VL: B5 VL with S43A
B12: hu1C5F12E9-V5 (antibody, human IgG4 S228P, kappa, V domains shown)
VH: B5 VH with R67K
VL: B5 VL with I48V
B13: hu1C5F12E9-V1 (antibody, human IgG4 S228P, kappa, V domains shown)
VH: B5 VH with M48I, M70L, R72V, T76S, V79A
VL: B5 VL with I48V
B14: hu1C5F12E9-V12 (antibody, human IgG4 S228P, kappa, V domains shown)
VH: B5 VH with R67K, R72V
VL: B5 VL with S43A
B15: hu1C5F12E9-V7 (antibody, human IgG4 S228P, kappa, V domains shown)
VH: B5 VH with M48I, M70L, R72V, T76S, V79A
VL: B5 VL with S43A
B16: hu1C5F12E9-V18 (antibody, human IgG4 S228P, kappa, V domains shown)
VH: B5 VH with R67K, R72V
VL: B5 VL
B17: 1F5H12D7 (antibody, V domains shown)
VH: QVQLQQPGTELVKPGASVKMSCKASGYTFTTYWMHWVKQRPGQGLEWIGVIDPSDSDTTYNQKFKGKATLTVDTSSSTAYMQLSSLTSEDSAVYYCTRSLDGYYDYWGQGTTLTVSS
VL: DIQMTQSPASLSASVGETVTITCRPTENIYSYLAWYQQKQGKSPHLLVYFARTLAEGVPSRFSGSGSGTQFSLKINSLQPEDFGIYYCQHHYGTPWTFGGGTKLEIK
B18: 1H3F11B7 (antibody, V domains shown)
VH: B17 VH
VL: B17 VL
notes: Mouse hybridoma mAb
B19: 1G2H12A1 (antibody, V domains shown)
VH: B17 VH
VL: B17 VL
notes: Mouse hybridoma mAb
B20: 1G3B9B1 (antibody, V domains shown)
VH: B17 VH
VL: B17 VL
notes: Mouse hybridoma mAb

molecular target: T2, Recombinant human TSLP-his (human, UniProt Q969D9 29-159); experiment: capture ELISA: antibody captured on anti-IgG Fc coat, biotin-labeled human TSLP-his detected with streptavidin-HRP
T2 construct: Prepared in-house; Amine-coupled to CM5 chip in SPR, loaded on APS sensors in Octet, biotin-labeled in the capture ELISA, unlabeled in the cell functional assays; also called human TSLP-his protein

| EC50 [nM] | Binder |
| --- | --- |
| 0.124 | B1 |
| 0.116 | B2 |
| 0.11 | B3 |
| 0.102 | B4 |

molecular target: T3, human TSLP-Fc (human, biotin-labeled); experiment: competitive ELISA: antibody pre-mixed with biotin-labeled human TSLP-Fc; blocked binding to coated human TSLPR-Fc/IL7Ra-Fc
T3 construct: Prepared in-house; also called biotin-labeled human TSLP-Fc; TSLP-Fc-biotin

| IC50 [nM] | Binder |
| --- | --- |
| 0.707 | B2 |
| 0.758 | B3 |
| 0.958 | B4 |

molecular target: T2, Recombinant human TSLP-his; experiment: capture ELISA: antibody captured on anti-IgG Fc coat, biotin-labeled human TSLP-his detected with streptavidin-HRP; remark: another data set of the same source

| EC50 [nM] | Binder |
| --- | --- |
| 0.173 | B1 |
| 0.169 | B4 |

Molecular target: T1, Recombinant cynomolgus monkey TSLP-his
Experiment: SPR, BIAcore; protocol of Example 2

| Kd [nM] | koff [s⁻¹] | kon [M⁻¹ s⁻¹] | Binder |
| --- | --- | --- | --- |
| < 0.0328 |  |  | B1 |
| < 0.0322 | < 1e-05 | 311000 | B4 |

molecular target: T2, Recombinant human TSLP-his; experiment: SPR, BIAcore; protocol of Example 2

| Kd [nM] | koff [s⁻¹] | kon [M⁻¹ s⁻¹] | Binder |
| --- | --- | --- | --- |
| < 0.0598 |  |  | B1 |
| < 0.061 | < 1e-05 | 164000 | B4 |

molecular target: T2, Recombinant human TSLP-his; experiment: SPR, Biacore T200; below the instrument limit, roughly calculated from the sensorgram

| koff [s⁻¹] | Binder |
| --- | --- |
| ~1.17e-06 | B5 |
| ~7.56e-07 | B6 |
| ~3.62e-07 | B7 |
| < 1e-05 | B8 |
| ~3.63e-06 | B9 |
| ~6.43e-06 | B10 |
| ~6.57e-07 | B11 |
| < 1e-05 | B12 |
| < 1e-05 | B13 |
| < 1e-05 | B14 |
| < 1e-05 | B15 |
| ~9.65e-06 | B16 |
| ~3.21e-06 | B4 |

molecular target: T3, human TSLP-Fc; experiment: cell-based ligand-blocking FACS: antibody pre-mixed with human TSLP-Fc; blocked binding to BAF3-3E6 cells expressing human TSLPR and IL7R

| IC50 [nM] | Binder |
| --- | --- |
| ~1.1 | B1 |
| ~1.12 | B2 |
| ~1.14 | B3 |
| ~1.09 | B4 |

molecular target: T3, human TSLP-Fc; experiment: competitive ELISA: antibody pre-mixed with biotin-labeled human TSLP-Fc; blocked binding to coated Tezepelumab

| IC50 [nM] | Binder |
| --- | --- |
| 0.381 | B1 |
| 0.403 | B4 |

molecular target: T2, Recombinant human TSLP-his; experiment: SPR, Biacore T200; protocol of Example 2

| Kd [nM] | koff [s⁻¹] | kon [M⁻¹ s⁻¹] | Binder |
| --- | --- | --- | --- |
| < 0.0962 | < 1e-05 | 104000 | B5 |
| < 0.11 | < 1e-05 | 90700 | B6 |
| < 0.0962 | < 1e-05 | 104000 | B7 |
| < 0.0971 | < 1e-05 | 103000 | B8 |
| < 0.0893 | < 1e-05 | 112000 | B9 |
| < 0.0909 | < 1e-05 | 110000 | B10 |
| < 0.082 | < 1e-05 | 122000 | B11 |
| < 0.0971 | < 1e-05 | 103000 | B12 |
| < 0.101 | < 1e-05 | 99300 | B13 |
| < 0.104 | < 1e-05 | 96100 | B14 |
| < 0.0926 | < 1e-05 | 108000 | B15 |
| < 0.0826 | < 1e-05 | 121000 | B16 |
| < 0.0956 | < 1e-05 | 105000 | B4 |

molecular target: T3, human TSLP-Fc; experiment: cell-based ligand-blocking FACS: antibody pre-mixed with human TSLP-Fc; blocked binding to BAF3-3E6 cells expressing human TSLPR and IL7R; remark: another data set of the same source

| IC50 [nM] | Binder |
| --- | --- |
| 2.38 | B1 |
| ~3.07 | B4 |

molecular target: T3, human TSLP-Fc; experiment: competitive ELISA: antibody pre-mixed with biotin-labeled human TSLP-Fc; blocked binding to coated human TSLPR-Fc/IL7Ra-Fc; remark: another data set of the same source

| IC50 [nM] | Binder |
| --- | --- |
| 0.145 | B1 |
| 0.123 | B4 |

molecular target: T2, Recombinant human TSLP-his; experiment: SPR, Biacore T200; TSLP-his amine-coupled to CM5 chip, antibody as analyte; 1:1 Langmuir fit

| Kd [nM] | koff [s⁻¹] | kon [M⁻¹ s⁻¹] | Binder |
| --- | --- | --- | --- |
| < 0.112 | < 1e-05 | 89700 | B17 |
| < 0.108 | < 1e-05 | 92900 | B18 |
| < 0.117 | < 1e-05 | 85200 | B19 |
| < 0.107 | < 1e-05 | 93600 | B20 |

molecular target: T3, human TSLP-Fc; experiment: competitive ELISA: antibody pre-mixed with biotin-labeled human TSLP-Fc; blocked binding to coated Tezepelumab; remark: another data set of the same source

| IC50 [nM] | Binder |
| --- | --- |
| 1.06 | B1 |
| 0.78 | B2 |
| 0.806 | B3 |
| 0.909 | B4 |

Molecular target: T1, Recombinant cynomolgus monkey TSLP-his
Experiment: indirect ELISA on coated cynomolgus TSLP-his

| EC50 [nM] | Binder |
| --- | --- |
| 0.17 | B1 |
| 0.151 | B4 |
